Values quoted from earlier work as cited in article PMC8506081.

What was measured:
[1] = biological target: PSD-95 (Homo sapiens) (UniProt P78352)
[2] = biological target: PSD-95 PDZ2 (Homo sapiens) (UniProt P78352)
Sequence of PSD-95 PDZ2 (Homo sapiens) (P78352 157-249): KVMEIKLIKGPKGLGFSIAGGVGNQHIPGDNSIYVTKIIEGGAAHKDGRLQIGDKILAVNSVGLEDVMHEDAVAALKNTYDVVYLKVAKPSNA

Sequence of PSD-95 (Homo sapiens) (P78352 whole entry): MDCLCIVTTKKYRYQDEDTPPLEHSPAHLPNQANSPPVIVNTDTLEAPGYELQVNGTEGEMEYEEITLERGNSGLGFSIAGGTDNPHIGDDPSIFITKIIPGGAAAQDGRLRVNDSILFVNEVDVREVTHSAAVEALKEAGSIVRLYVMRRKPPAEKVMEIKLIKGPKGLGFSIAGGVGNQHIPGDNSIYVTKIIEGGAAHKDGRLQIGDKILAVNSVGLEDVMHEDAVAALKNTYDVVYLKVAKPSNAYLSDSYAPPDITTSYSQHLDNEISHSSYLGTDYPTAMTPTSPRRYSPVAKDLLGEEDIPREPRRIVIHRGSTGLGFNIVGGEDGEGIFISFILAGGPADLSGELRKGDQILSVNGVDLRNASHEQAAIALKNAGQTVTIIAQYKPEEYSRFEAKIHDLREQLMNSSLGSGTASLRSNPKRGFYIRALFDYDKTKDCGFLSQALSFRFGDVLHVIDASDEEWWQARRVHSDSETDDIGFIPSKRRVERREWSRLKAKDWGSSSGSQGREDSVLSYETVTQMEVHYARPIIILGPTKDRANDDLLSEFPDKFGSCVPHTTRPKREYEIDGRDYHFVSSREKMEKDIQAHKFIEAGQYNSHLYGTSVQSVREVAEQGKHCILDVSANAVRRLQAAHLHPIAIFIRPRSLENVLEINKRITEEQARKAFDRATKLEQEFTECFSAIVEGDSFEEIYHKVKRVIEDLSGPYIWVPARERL

Ki [1]	Substance	Ki [2]
10 nM	AVLX-125	
	NA-1	4400 nM
